Experiment [1] concerns the target EPCR (Homo sapiens) (UniProt Q9UNN8). The conditions noted are these: cited from earlier work.
Experiment [2] deals with recombinant human EPCR (extracellular domain Met1-Thr209, C-terminal poly-histidine tag) (human) (UniProt Q9UNN8). The experiment is described as follows: SPR.

For three substances, Kd results are on record in publication PMC3870021.

Broadly, the Kd is a measure of binding affinity in units of concentration.

recombinant human EPCR (extracellular domain Met1-Thr209, C-terminal poly-histidine tag) (human), sequence (Q9UNN8 18-209): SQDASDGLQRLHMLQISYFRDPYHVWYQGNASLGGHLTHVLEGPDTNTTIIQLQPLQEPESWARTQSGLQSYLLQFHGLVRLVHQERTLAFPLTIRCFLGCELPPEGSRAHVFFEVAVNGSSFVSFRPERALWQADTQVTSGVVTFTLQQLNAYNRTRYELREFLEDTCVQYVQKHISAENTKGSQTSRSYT
EPCR (Homo sapiens), sequence (Q9UNN8 18-210): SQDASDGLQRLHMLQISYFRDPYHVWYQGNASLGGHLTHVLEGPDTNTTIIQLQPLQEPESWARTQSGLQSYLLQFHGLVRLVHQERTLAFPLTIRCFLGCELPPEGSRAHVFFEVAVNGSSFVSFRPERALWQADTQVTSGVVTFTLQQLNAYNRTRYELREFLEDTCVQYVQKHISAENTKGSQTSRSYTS

Consider “Activated protein C (from UniProt P04070)”, for which the Kd in experiment [1] was 32 nM.
Consider “activated protein C (commercial human purified APC) (from UniProt P04070 43-197) (enzyme)”, for which, in experiment [2], the Kd came to 1000 nM.
Regarding “recombinant full-length DC8-containing PfEMP1 IT4VAR20 (natural protein)”, the Kd in experiment [2] came out at 10 nM.
